Results published in patent publication US20110182903A1, “NOVEL SOLUBLE CD83 POLYPEPTIDES, FORMULATIONS AND METHODS OF USE” (priority 2008, published 2011).
Residue numbers refer to the chain shown, from its start. Names and notes keep the numbering of the source. Where two headings read alike, the source gives them in different places.

Legend:
[1] = target: the molecule itself; experiment: non-reducing SDS-PAGE; self-association through disulfide bonds
[2] = target: the molecule itself; experiment: size-exclusion chromatography and non-reduced SDS-PAGE with NEM; self-association
[3] = system: heterotopic cardiac allograft; experiment: C57BL/6-to-BALB/c mouse heart transplant model (murine heterotopic cardiac allograft); type: in vivo; settings: for extension of allograft survival compared to untreated controls / mean survival time of graft: monotherapy; for mean survival time of graft: 100 ug per mouse per day for 8 days, untreated mean 8 days
Method: Animal model: C57BL/6-to-BALB/c Mouse Heart Transplant Model
Male adult C57BL/6 (H-2b) were used as donors and BALB/c (H-2d) mice were used as recipients (Jackson Laboratories, Bar Harbor, Mass.). Intra-abdominal heterotopic cardiac transplantation was performed as previously described (Corry et al. (1973) Transplantation 16(4):343-350 and Wang et al. (2007) J Immunol 179(7):4451-4463). In this study, transplant surgery involved transfer of fully MHC-mismatched hearts from C57BL/6 donors to BALB/c recipients, such that the autologous heart as well as the allogenic heart was present in the recipient.
Cardiac transplant recipients were treated as follows: Group I (five recipients) received no treatment. Group 2 (3 recipients) received hCD83ext-m3 monotherapy by i.v. at 100 μg/mouse/day, from −1 to +7 POD. […] Cardiac transplant survival was measured in the number of postoperative days (POD) that the allogenic heart continued to beat.
Cardiac transplant recipients were treated as follows: Group 4 (4 recipients) received hCD83ext-wt (SEQ ID NO:5) monotherapy by i.v. at 100 μg/mouse/day, from the day prior to transplantation until graft rejection.

[4] = Storage stability of purified protein, reduced and non-reduced SDS-PAGE; type: physicochemical
Method: The purified wild type hCD83ext, when prepared as described in Example 1 and formulated either in the presence or absence of 50% glycerol, degraded when stored at 4° C., perhaps due to an intrinsic instability of this biomolecule. […] Generally, the dimer composition increased monotonically with the sample age, indicating the progressive conversion of monomer to dimer under this storage condition. Note that there were at least two different monomer forms (lane 6, FIG. 6) and three different dimer forms (lanes 3 and 7, FIG. 6) derived from various sample preps.

[5] = system: TNFα production by LPS/IFN-γ stimulated peripheral blood mononuclear cells (PBMCs)
Method: The ability of the wild type and mutant hCD38ext to inhibit TNFα production by LPS/IFN-γ stimulated peripheral blood mononuclear cells (PBMCs) was evaluated in an in vitro assay using PBMCs from cynomologus monkeys. Specifically, cynomologus PBMCs were isolated and pretreated 12 hours with different concentrations (0.5, 5, 25 and 100 μg/ml) of hCD83ext wild type (formulated at pH 4.5 or 5.5), hCD83ext-m3 or hCD83ext-m5 (501-1). hCD83ext-m3 and hCD83ext-m5 were formulated at pH 5.5 or 7.6, respectively. The cells were then activated for 6 hours with LPS (1 μg/ml) plus IFN-γ (100 U/ml) in the presence of Brefeldin A (4 μg/ml) and then intracellularly stained for TNFα using a commercially available Fix/Perm kit. Flow cytometry acquisition and analysis of the amount of TNFα production was evaluated using either myeloid dendritic cells or monocytes. The results are expressed as % of mDC or monocytes producing TNFα and in Mean Fluorescence Units (MFU), which represents the levels of TNFα on a per cell basis.
hCD83ext wild type protein originally formulated at pH 7.6 (data shown FIGS. 26 and 27) was buffer exchanged into a buffer with a pH of 4.5 or 5.5 and re-tested as described above for the ability to inhibit TNFα production by LPS/IFN-γ stimulated cynomologus PBMCs in vitro.

[6] = Dimerization by size-exclusion chromatography and non-reduced SDS-PAGE with NEM pretreatment; type: physicochemical; settings: SEC and non-reduced SDS-PAGE with NEM; FIGS. 20, 21
Source text: Using exactly the same fermentation and downstream processing protocols as those for wild-type hCD83ext and CD83m-5, CD83m-3 was produced and purified. […] Purified CD83m-3 was subjected to structural characterization using SDS-PAGE (FIG. 15), CD (FIGS. 16 and 17), and spectrofluometry (FIG. 18) with results similar to wild-type hCD83ext and CD83m-5. Note that a clear and reproducible doublet was observed on non-reduced SDS-PAGE (FIG. 15). Also, note that none of these two bands corresponding to the CD83m-3 doublet appeared to have an identical mobility to the monomer species of CD83m-5, but the upper CD83m-3 band appeared to have an identical mobility to the monomer species of the wild-type hCD83ext (FIG. 19). To avoid potential disulfide bond scrambling during the sample preparation for non-reduced SDS-PAGE, the protocol was modified by pretreatment of the sample with N-Ethylmaleimide (NEM). NEM alkylates free thiol groups on cysteine residues that have not formed disulfide bonds, and thereby prevents subsequent disulfide bonding by that cysteine residue. It appears that the modified protocol using NEM provides a more reliable and consistent method for quantification of CD83 dimers by preventing any potential disulfide bond scrambling and the CD83 monomer is observed as a single band, rather than as a doublet (FIG. 20). […]

[7] = system: TNFα production by LPS/IFN-γ stimulated human PBMCs; experiment: Inhibition of TNFα production by LPS/IFN-γ stimulated human PBMCs; type: cell-based; settings: FIG. 30; four m3 preparations (pH 4.5, 5.5, 7.6) vs wild type ARG-021 in PBS pH 7.6
Source text: The improved stability/activity of hCD83ext-m3 as compared to hCD83ext wild type was confirmed in a similar assay using human PBMCs.

[8] = system: kidney allografts from C57BL/6 mouse donors; experiment: Mouse orthotopic kidney transplant model; type: in vivo; settings: monotherapy 100 μg/mouse/day i.v., day -1, day 0 and seven POD; untreated MST 31±4.9 days
Method: The mouse orthotopic kidney transplant model (see Zhang et al. (2005) Microsurgery 16(2):103-109) was used to assess the ability of hCD83ext-m3 to induce allograft tolerance. BALB/c mice received kidney allografts from C57BL/6 mouse donors. Recipient mice were either untreated (two mice) or received hCD83ext-m3 (3 mice; 100 μg/mouse/day, i.v.) one day prior to transplantation (day −1), the day of transplantation (day 0) and for seven days post operative days (POD). The two untreated mice survived for 28 and 35 days, giving a mean survival time (MST) of 31±4.9 days. The three mice treated with hCD83ext-m3 each survived for more than 100 POD. Accordingly, monotherapy with hCD83ext-m3 leads to long-term allograft acceptance in the mouse orthotopic kidney transplant model.

rat renal allografts = experiment: Rat renal transplant model of chronic rejection (F344 to Lewis); type: in vivo; settings: POD 140; with CsA, compared to CsA alone; FIG. 37
Method: F344 rats served as renal donors to Lewis rats. […] Transplant recipients were sacrificed on POD 140 and transplanted kidneys were assessed for indications of chronic rejection by histology and immunohistochemistry. Renal histology was scored by an independent pathologist assessing tubular atrophy, glomerular atrophy, interstitial fibrosis, intimal thickness, cell infiltrates and cortical scarring on a scale of 0-4, wherein 0=normal, 1=minimal change, 2=mild change, 3=moderate change and 4=marked change.

[9] = FIG. 26, 0.5, 5, 25 and 100 μg/ml, wild type at pH 4.5 or 5.5, m3 at pH 5.5, m5 at pH 7.6

B1: wild type hCD83ext (human CD83 extracellular domain with N-terminal Gly-Ser-Pro-Gly and C-terminal Ile, purified from E. coli) (receptor)
chain: GSPGTPEVKVACSEDVDLPCTAPWDPQVPYTVSWVKLLEGGEERMETPQEDHLRGQHYHQKGQNGSFDAPNERPYSLKIRNTTSCNSGTYRCTLQDPDGQRNLSGKVILRVTGCPAQRKEETFKKYRAE
notes: It carries four extra N-terminal residues and the first transmembrane residue (Ile); Not glycosylated (made in E. coli); Preparations hold monomer and disulfide-linked dimers and multimers; also called hCD83ext-wt; hCD83ext wild type
B1: binds [1].

B2: hCD83ext-m5 (hCD83ext with the fifth cysteine, position 114 of SEQ ID NO:5, mutated to serine) (receptor)
chain: B1 chain with C114S
notes: also called CD83m-5; hCD83m-5
B2: binds [2].

B3: hCD83ext-wt: recombinant human sCD83 (CD83 extracellular domain) purified from E. coli, wild type form, SEQ ID NO:5 (protein)
chain: GSPGTPEVKVACSEDVDLPCTAPWDPQVPYTVSWVKLLEGGEERMETPQEDHLRGQHYHQKGQNGSFDAPNERPYSLKIRNTTSCNSGTYRCTLQDPDGQRNLSGKVILRVTGCPAQRKEETFKKYRAEI
modifications: Synthetic extracellular domain of human CD83 with the addition of Gly-Ser-Pro-Gly at the N-terminus and Ile at the C-terminus
With B3 the “MST ± SD” value ([3]; Table 8, hCD83ext-wt 100 μg/mouse/day i.v., CsA 15 mg/kg/day s.c.) was 15.8 ± 1.0 days, the mean survival ([3]; in combination with cyclosporine, glycerol omitted) was “approximately 14 days” and the long-term graft survival ([3]; in combination with cyclosporine, stored in 50% glycerol, final glycerol concentration 8%) was > 100 days. For the same molecule, the “extension of allograft survival compared to untreated controls” value [3] was “approximately 2 fold”, the “mean survival time of graft” value [3] was “approximately 14 days” and the degradation on storage ([4]; stored at 4° C., with or without 50% glycerol) was “degraded”. The degradation on storage ([4]; stored at -20° C.) was “completely prevented degradation” and the “dimerization on long-term storage” value ([4]; stored at -20° C., frozen) was “dimerization could still occur”.

B4: hCD83ext-m5: soluble CD83 mutant, fifth cysteine of SEQ ID NO:5 mutated to serine, SEQ ID NO:6 (WO2004/046182) (protein)
chain: B3 chain with C114S
modifications: Synthetic extracellular domain of human CD83 with the addition of Gly-Ser-Pro-Gly and the N-terminus and Ile at the C-terminus, with Cys to Ser (C2S) mutation at position 114
In the case of B4, the “mean survival time of graft” value [3] is reported as “approximately 14 days”, the “ability to inhibit TNFα production (relative activity)” value [5, 9] is reported as “more active than the wild type hCD93ext” and the “ability to inhibit TNFα production (relative activity)” value ([5]; FIG. 27, proteins formulated at pH 7.6) is reported as “outperformed two preparations of hCD83ext wild type”. The dimerization [6] was “significant”.

B5: hCD83ext-m3: m3 mutant form of human sCD83; SEQ ID NO:7 with Cys at 12, 20, 92, 114 and Ser at 85 (protein)
chain: B3 chain with C12X, C20X, C85X, C92X, C114X
modifications: Synthetic extracellular domain of human CD83 with the addition of Gly-Ser-Pro-Gly and the N-terminus and Ile at the C-terminus
With B5 the “ability to inhibit TNFα production (relative activity)” value [7] was “outperformed hCD83ext wild type”, the “synergy with CsA and operational tolerance” value ([3]; 3 doses on days -1 to +1 plus CsA, CsA withdrawn at day 50, data not shown) was “full synergy with CsA, but incomplete operational tolerance” and the “MST ± SD” value ([3]; Table 7, hCD83ext-m3 100 μg/mouse/day i.v. -1 to +7 POD, CsA 15 mg/kg/day s.c. daily) was 13.7 ± 0.6 days. For the same molecule, the “allograft tolerance after CsA withdrawal” value ([3]; combination therapy with CsA, CsA withdrawn at day 28, data not shown) was “does not lead to permanent allograft tolerance”, the “extension of allograft survival compared to untreated controls” value [3] was “approximately 2 fold” and the “mean survival time of graft” value [3] was “approximately 14 days”. The “allograft tolerance after cessation of daily CsA therapy” value ([3]; plus CsA until POD 50, hCD83ext-m3 100 μg i.v. days -1 to +7, data not shown) was “complete allograft tolerance”, the “survival of kidney allograft recipients” value [8] was “more than 100 POD” and the “ability to inhibit TNFα production (relative activity)” value [5, 9] was “more active than the m5 mutant”. For the same molecule, the “immunohistochemistry grading in renal allografts (IgG, IgM deposits; CD2, CD4, ED-1 infiltration)” value (rat renal allografts) was “significantly (p<0.05) improves immunohistochemistry grading” and the dimerization [6] was “absent or minimal”.
